Here are results for one molecule from publication PMC6424575 (Biochemistry, 2018).

One experiment addresses DEBS module 3+TE (Saccharopolyspora erythraea). Nature of the experiment: ELISA. (ELISA stands for enzyme-linked immunosorbent assay.)
The target in experiment [1] is DEBS3 (bimodular protein of the 6-deoxyerythronolide B synthase) (Saccharopolyspora erythraea, UniProt Q03133). Nature of the experiment: SEC-SAXS. In general terms: SEC sorts molecules by how far they enter the pores of the column.
Sequence of DEBS3 (bimodular protein of the 6-deoxyerythronolide B synthase) (Q03133 whole entry): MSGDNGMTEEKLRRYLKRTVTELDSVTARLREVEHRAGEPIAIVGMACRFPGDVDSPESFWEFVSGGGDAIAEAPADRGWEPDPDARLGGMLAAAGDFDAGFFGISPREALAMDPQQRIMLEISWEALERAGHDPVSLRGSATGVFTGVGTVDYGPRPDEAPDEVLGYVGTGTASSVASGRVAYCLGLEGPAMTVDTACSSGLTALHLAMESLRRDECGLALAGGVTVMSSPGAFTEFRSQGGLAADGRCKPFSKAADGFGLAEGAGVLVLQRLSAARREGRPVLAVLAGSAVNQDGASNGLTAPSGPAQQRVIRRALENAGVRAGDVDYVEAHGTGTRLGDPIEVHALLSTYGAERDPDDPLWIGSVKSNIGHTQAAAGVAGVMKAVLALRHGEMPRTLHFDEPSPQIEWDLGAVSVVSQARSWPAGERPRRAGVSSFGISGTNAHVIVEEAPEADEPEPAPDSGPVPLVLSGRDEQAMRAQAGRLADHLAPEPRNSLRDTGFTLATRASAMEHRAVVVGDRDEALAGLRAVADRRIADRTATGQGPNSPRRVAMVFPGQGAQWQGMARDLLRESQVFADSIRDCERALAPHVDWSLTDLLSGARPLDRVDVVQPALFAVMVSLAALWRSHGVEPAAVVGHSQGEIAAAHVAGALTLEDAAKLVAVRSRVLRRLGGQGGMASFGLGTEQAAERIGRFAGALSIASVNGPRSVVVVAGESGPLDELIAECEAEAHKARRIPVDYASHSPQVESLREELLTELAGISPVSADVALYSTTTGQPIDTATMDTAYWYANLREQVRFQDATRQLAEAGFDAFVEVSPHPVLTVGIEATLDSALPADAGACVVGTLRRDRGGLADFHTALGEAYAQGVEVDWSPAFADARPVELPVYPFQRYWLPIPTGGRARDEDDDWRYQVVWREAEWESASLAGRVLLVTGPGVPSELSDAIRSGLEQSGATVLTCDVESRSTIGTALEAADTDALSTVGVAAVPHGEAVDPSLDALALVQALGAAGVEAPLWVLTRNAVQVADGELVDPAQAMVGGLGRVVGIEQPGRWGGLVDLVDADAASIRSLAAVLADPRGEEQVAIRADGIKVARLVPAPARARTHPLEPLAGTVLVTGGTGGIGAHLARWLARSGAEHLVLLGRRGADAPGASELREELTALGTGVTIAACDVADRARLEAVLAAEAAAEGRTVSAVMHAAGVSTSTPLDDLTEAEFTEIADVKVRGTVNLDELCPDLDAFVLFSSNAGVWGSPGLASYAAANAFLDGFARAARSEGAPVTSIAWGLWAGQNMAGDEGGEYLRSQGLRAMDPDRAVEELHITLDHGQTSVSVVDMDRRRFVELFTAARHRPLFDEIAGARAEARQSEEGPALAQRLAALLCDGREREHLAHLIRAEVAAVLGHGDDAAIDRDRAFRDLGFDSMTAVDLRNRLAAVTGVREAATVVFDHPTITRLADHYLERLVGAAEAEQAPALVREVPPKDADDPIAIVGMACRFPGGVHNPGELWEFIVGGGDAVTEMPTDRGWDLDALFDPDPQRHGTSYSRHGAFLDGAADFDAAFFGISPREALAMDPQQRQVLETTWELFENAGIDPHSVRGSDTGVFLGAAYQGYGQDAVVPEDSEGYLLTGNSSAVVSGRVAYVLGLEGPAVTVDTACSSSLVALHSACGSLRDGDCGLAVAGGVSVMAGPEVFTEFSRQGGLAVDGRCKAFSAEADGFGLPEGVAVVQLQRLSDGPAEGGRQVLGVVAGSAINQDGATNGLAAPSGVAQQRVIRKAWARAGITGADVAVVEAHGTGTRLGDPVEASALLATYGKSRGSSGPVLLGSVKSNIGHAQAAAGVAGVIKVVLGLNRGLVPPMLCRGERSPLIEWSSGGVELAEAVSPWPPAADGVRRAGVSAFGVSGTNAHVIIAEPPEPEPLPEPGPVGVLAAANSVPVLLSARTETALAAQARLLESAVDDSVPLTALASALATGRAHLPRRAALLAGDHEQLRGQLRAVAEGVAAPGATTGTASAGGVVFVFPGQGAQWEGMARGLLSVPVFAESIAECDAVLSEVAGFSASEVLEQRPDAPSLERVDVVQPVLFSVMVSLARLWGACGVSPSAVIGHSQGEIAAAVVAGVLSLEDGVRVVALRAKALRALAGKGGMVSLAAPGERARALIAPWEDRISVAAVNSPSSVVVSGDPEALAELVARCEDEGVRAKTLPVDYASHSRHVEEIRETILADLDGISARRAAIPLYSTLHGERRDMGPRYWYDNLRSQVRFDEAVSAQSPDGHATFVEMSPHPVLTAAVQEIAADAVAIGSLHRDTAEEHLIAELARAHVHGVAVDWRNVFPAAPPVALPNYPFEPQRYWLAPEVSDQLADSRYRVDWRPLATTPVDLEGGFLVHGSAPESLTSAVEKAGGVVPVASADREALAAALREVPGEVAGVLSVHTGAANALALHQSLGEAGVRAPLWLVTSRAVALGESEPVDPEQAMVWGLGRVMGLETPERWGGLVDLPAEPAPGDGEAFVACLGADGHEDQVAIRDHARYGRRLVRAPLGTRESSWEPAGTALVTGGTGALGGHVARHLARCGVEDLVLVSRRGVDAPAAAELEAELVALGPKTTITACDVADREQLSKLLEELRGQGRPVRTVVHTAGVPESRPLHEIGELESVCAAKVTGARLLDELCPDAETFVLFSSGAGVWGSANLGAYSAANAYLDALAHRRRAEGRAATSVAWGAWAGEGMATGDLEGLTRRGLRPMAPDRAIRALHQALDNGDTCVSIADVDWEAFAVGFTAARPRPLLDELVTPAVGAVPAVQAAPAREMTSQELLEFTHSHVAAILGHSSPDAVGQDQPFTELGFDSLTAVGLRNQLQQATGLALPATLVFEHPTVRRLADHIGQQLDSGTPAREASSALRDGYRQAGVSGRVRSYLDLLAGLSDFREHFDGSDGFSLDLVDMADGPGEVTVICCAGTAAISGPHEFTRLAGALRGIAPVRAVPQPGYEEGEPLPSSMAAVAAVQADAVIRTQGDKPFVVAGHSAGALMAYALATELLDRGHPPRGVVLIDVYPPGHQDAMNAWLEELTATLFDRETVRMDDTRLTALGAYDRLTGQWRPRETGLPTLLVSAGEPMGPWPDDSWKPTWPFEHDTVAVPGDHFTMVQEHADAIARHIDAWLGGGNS

B1: Fab 3A6 (Fab, V domains shown)
VH: QVQLQQWGAGLLKPSETLSLTCAVYGGSFSGYYWSWIRQPPGKGLEWIGEINHSGSTNYNPSLKSRVTISVDTSKNQFSLKLSSVTAADTAVYYCARGLGYSGSYYAPNWGQGTLVTVSS
VL: not shown
As usually defined, the Kd is the equilibrium constant for the complex coming apart. Molecule B1 came in with a Kd with DEBS module 3+TE of 42 ± 12 nM. Moreover, the binding result in experiment [1] is “binds”.
